B4: B7-1 expressed on transfected COS cells (ligand)
chain: VIHVTKEVKEVATLSCGHNVSVEELAQTRIYWQKEKKMVLTMMSGDMNIWPEYKNRTIFDITNNLSIVILALRPSDEGTYECVVLKYEKDAFKREHLAEVTLSVKADFPTPSISDFEIPTSNIRRIICSTSGGFPEPHLSWLENGEELNAINTTVSQDPETELYAVSSKLDFNMTTNHSFMCLIKYGHLRVNQTFNWNTTKQEHFPDNLLPSWAITLISVNGIFVICCLTYCFAPRCRERRRNERLRRESVRPV
notes: whole, on cells; also called CD80

Legend:
[1] = target: PD-1 on T cells (species not stated); assay: cell-based or functional assay
[2] = target: T1, human B7-4M expressed on transfected COS or CHO cells (human, UniProt Q9NZQ7 19-290); assay: flow cytometry on B7-4M-transfected COS cells
T1 construct: Full-length B7-4M cDNA expressed on COS or CHO cells; also called PD-L1
T1 sequence (Q9NZQ7 19-290): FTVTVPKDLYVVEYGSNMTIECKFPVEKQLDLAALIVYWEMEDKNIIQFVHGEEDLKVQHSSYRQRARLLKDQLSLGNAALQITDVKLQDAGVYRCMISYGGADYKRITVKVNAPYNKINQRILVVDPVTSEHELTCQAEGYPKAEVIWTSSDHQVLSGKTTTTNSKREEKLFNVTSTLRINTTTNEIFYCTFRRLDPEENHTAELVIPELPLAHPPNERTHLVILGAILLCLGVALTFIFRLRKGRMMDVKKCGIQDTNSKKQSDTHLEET

[3] = target: B4; assay: flow cytometry (FITC) on B7-1-transfected COS cells
[4] = target: T2, human PD-1 fused to murine Ig gamma2a (human; murine, UniProt P01863 98-330 = IgG part, limits assumed); assay: flow cytometry on CHO-IA^d cells, hPD-1-Ig developed with goat anti-murine IgG2a-PE
T2 construct: domain: hinge-CH2-CH3; The Fc mutations are not specified; also called human PD-1 gamma 2a fusion protein; hPD-1-Ig
T2 sequence (P01863 other isoform, or with tags, fused parts or gaps limits assumed): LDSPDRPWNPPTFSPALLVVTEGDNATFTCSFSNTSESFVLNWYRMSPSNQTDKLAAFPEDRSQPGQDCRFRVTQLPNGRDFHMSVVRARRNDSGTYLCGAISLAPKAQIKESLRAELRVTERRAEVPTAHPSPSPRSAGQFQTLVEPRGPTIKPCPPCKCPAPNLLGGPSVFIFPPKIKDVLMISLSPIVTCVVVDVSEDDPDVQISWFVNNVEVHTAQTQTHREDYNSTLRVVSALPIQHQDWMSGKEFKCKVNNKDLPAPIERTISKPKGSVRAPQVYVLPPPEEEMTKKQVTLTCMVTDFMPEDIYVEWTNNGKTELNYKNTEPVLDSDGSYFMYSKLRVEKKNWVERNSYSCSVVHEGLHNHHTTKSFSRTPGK
Description: In addition, cells were stained separately with 5 μg/ml anti-IA^d-PE or B7.2-PE (Pharmingen, San Diego, Calif.). Following each step, cells were washed three times with PBS/1% BSA/0.02% sodium azide. After the final incubation, cells were fixed with 1% paraformaldehyde. Ten thousand events were analyzed on a FACSCalibar (Becton Dickinson, Mountain View, Calif.). All isotype controls were obtained from Pharmingen.

[5] = target: T1, human B7-4M expressed on transfected …; assay: flow cytometry on CHO cells expressing human B7-4
[6] = target: T3, murine B7-4 expressed on transfected cells (murine, UniProt Q9EP73 19-290); assay: flow cytometry on CHO cells expressing murine B7-4
T3 construct: also called mouse B7-4; mB7-4
T3 sequence (Q9EP73 19-290 limits assumed): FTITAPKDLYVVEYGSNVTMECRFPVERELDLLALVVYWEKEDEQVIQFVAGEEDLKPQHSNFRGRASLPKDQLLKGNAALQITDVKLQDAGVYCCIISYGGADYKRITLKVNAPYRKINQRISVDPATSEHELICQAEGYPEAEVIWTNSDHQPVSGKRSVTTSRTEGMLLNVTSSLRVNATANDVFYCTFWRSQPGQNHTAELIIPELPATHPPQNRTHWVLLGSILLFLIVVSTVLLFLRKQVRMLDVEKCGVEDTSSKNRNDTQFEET

[7] = target: T4, human PD-1-Fc (human Ig gamma 1) (human, UniProt P01857 99-330 = IgG part); assay: flow cytometry on B7-1-transfected COS cells, anti-IgG-PE
T4 construct: domain: hinge-CH2-CH3; also called human PD-1 linked to IgG1
T4 sequence (P01857 other isoform, or with tags, fused parts or gaps limits assumed): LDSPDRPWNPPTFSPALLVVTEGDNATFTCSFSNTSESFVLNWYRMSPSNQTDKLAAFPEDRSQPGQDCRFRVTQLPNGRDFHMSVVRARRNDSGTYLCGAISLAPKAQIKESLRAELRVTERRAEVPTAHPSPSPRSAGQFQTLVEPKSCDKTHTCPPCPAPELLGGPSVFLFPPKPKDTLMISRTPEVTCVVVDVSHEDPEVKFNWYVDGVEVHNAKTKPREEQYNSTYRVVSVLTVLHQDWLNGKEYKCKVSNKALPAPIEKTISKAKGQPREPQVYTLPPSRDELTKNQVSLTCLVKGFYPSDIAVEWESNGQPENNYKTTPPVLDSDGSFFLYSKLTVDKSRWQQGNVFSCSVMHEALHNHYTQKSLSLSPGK
Description: COS cells were transfected with either B7-4M or B7-1 using LipofectAMINE transfection reagent. […] The cells were then analyzed by flow cytometry.

[8] = target: T4, human PD-1-Fc (human Ig gamma 1); assay: in situ staining of transfected COS cell monolayers
Description: In addition, an in situ assay of transfected COS cell monolayers was performed. […] Binding was visualized with chromogenic substrates 5-bromo-4-chloro-3-indolyl phosphate and nitro blue tetrazolium and light microscopy.

[9] = target: T4, human PD-1-Fc (human Ig gamma 1); assay: BIACORE, PD-1-Fc immobilized

Q: How did the % CD69+ T cells at 24 hours, anti-CD3/B7-4.Fc (anti-CD3 alone 26%) [1] turn out when “B7-4.Fc / PDL1.Ig fusion protein (species not stated) (Fc fusion)” was run?
A: 26%

Q: And the % CD69+ T cells at 48 hours, anti-CD3/B7-4.Fc (anti-CD3 alone 46%) [1]?
A: 36%

Q: What about the % CD69+ T cells at 72 hours, anti-CD3/B7-4.Fc (anti-CD3 alone 63%) [1] of the same molecule?
A: 42%

Q: And the % IL-2R+ (CD25) T cells at 24 hours, anti-CD3/B7-4.Fc (anti-CD3 alone 17%) [1]?
A: 12%

Q: And the % IL-2R+ (CD25) T cells at 48 hours, anti-CD3/B7-4.Fc (anti-CD3 alone 29%) [1]?
A: 17%

Q: And the % IL-2R+ (CD25) T cells at 72 hours, anti-CD3/B7-4.Fc (anti-CD3 alone 54%) [1]?
A: 15%

Q: What about the % apoptotic T cells (propidium iodide and annexin positive) at 24 hours, anti-CD3/B7-4.Fc (anti-CD3 alone 3%) [1] of the same molecule?
A: 3%

Q: What about the % apoptotic T cells at 48 hours, anti-CD3/B7-4.Fc (anti-CD3 alone 5%) [1] of the same molecule?
A: 4%

Q: And the % apoptotic T cells at 72 hours, anti-CD3/B7-4.Fc (anti-CD3 alone 10%) [1]?
A: 12%

B1: murine ICOS-his fusion protein (receptor, UniProt Q9WVS0 21-144, looked up)
chain: EINGSADHRMFSFHNGGVQISCKYPETVQQLKMRLFREREVLCELTKTKGSGNAVSIKNPMLCLYHLSNNSVSFFLNNPDSSQGSYYFCSLSIFDPPPFQERNLSGGYLHIYESQLCCQLKLWL
notes: not shown: his tag
Q: Does B1 bind [2]?
A: no binding

Q: Does B1 bind [3]?
A: no binding

B2: IA^d expressed on CHO transfectants (CHO-IA^d) (other)
alpha: EDDIEADHVGFYGTTVYQSPGDIGQYTHEFDGDELFYVDLDKKKTVWRLPEFGQLILFEPQGGLQNIAAEKHNLGILTKRSNFTPATNEAPQATVFPKSPVLLGQPNTLICFVDNIFPPVINITWLRNSKSVTDGVYETSFLVNRDHSFHKLSYLTFIPSDDDIYDCKVEHWGLEEPVLKHWEPEIPAPMSELTETVVCALGLSVGLVGIVVGTIFIIQGLRSGGTSRHPGPL
beta: GNSERHFVVQFKGECYYTNGTQRIRLVTRYIYNREEYVRYDSDVGEYRAVTELGRPDAEYWNSQPEILERTRAEVDTACRHNYEGPETSTSLRRLEQPNVAISLSRTEALNHHNTLVCSVTDFYPAKIKVRWFRNGQEETVGVSSTQLIRNGDWTFQVLVMLEMTPHQGEVYTCHVEHPSLKSPITVEWRAQSESARSKMLSGIGGCVLGVIFLGLGLFIRHRSQKGPRGPPPAGLLQ
notes: present on CHO-IA^d, CHO-IA^d/B7.2 and CHO-IA^d/B7.2/B7-4; copies: 1 + 1
Q: Does B2 bind [4]?
A: no binding (tested: 5 ug/ml)

B3: murine PD-1-Fc (Fc fusion, UniProt Q02242 25-167, looked up)
chain: LEVPNGPWRSLTFYPAWLTVSEGANATFTCSLSNWSEDLMLNWNRLSPSNQTEKQAAFCNGLSQPVQDARFQIIQLPNRHDFHMNILDTRRNDSGIYLCGAISLHPKAKIEESPGAELVVTERILETSTRYPSPSPKPEGRFQ
notes: also called murine PD-1.Ig; mouse PD-1; not shown: Fc portion
Q: Which results are given for B3?
A: binding result [5]: binds; binding result [6]: binds

Q: Does B4 bind [7]?
A: no binding

B5: B7-2 expressed on transfected COS cells (ligand)
chain: APLKIQAYFNETADLPCQFANSQNQSLSELVVFWQDQENLVLNEVYLGKEKFDSVHSKYMGRTSFDSDSWTLRLHNLQIKDKGLYQCIIHHKKPTGMIRIHQMNSELSVLANFSQPEIVPISNITENVYINLTCSSIHGYPEPKKMSVLLRTKNSTIEYDGVMQKSQDNVTELYDVSISLSVSFPDVTSNMTIFCILETDKTRLLSSPFSIELEDPQPPPDHIPWITAVLPTVIICVMVFCLILWKWKKKKRPRNSYKCGTNTMEREESEQTKKREKIHIPERSDEAQRVFKSSKTSSCDKSDTCF
notes: whole, on cells; also called CD86
Q: Does B5 bind [8]?
A: no binding

B6: soluble form of human B7-1 (ligand)
chain: VIHVTKEVKEVATLSCGHNVSVEELAQTRIYWQKEKKMVLTMMSGDMNIWPEYKNRTIFDITNNLSIVILALRPSDEGTYECVVLKYEKDAFKREHLAEVTLSVKADFPTPSISDFEIPTSNIRRIICSTSGGFPEPHLSWLENGEELNAINTTVSQDPETELYAVSSKLDFNMTTNHSFMCLIKYGHLRVNQTFNWNTTKQEHFPDN
notes: also called soluble B7-1
Q: Does B6 bind [9]?
A: no binding

B7: soluble form of human B7-2 (ligand)
chain: APLKIQAYFNETADLPCQFANSQNQSLSELVVFWQDQENLVLNEVYLGKEKFDSVHSKYMGRTSFDSDSWTLRLHNLQIKDKGLYQCIIHHKKPTGMIRIHQMNSELSVLANFSQPEIVPISNITENVYINLTCSSIHGYPEPKKMSVLLRTKNSTIEYDGVMQKSQDNVTELYDVSISLSVSFPDVTSNMTIFCILETDKTRLLSSPFSIELEDPQPPPDHIP
notes: also called soluble B7-2
Q: Does B7 bind [9]?
A: no binding

— US20030044768A1 (Dana-Farber, published 2003)
